Measurements taken from US20210032312A1 (Janssen / Centocor, published 2021).
Positions count from the first letter of the chain named.

B1: P282BR9P1357_B2 (designed binder)
chain: LPAPKNLVVSRVTEDSARLSWNPSEDPQRFDSFLIQYQESEKVGEAIVLTVPGSERSYDLTGLKPGTEYTVSIYGVDVKWEGNRPVASNPLSAIFTT
notes: FN3 domain
B2: P282BR9P1357_C10 (designed binder)
chain: B1 chain with N22W, P23S, S24N, E25D, D26N, P27R, Q28P, R29I
notes: FN3 domain
B3: P283BR9P1363_C8 (designed binder)
chain: LPAPKNLVVSRVTEDSARLSWAKTSDLHPLFDSFLIQYQESEKVGEAIVLTVPGSERSYDLTGLKPGTEYTVSIYGVDVKWEGNRPVASNPLSAIFTT
notes: FN3 domain
B4: P282BR9P1357_C4 (designed binder)
chain: B3 chain with K5N, A22P, K23F, T24V, D26Q, L27N, H28K, L30H
notes: FN3 domain
B5: P282BR9P1357_H3 (designed binder)
chain: B3 chain with A22K, T24R, S25E, D26Y, L27Q, H28D, L30G
notes: FN3 domain
B6: P283BR9P1363_B6 (designed binder)
chain: B3 chain with A22Q, K23R, T24H, L27A
notes: FN3 domain
B7: P283BR9P1363_E4 (designed binder)
chain: B3 chain with A22I, T24S, S25E, D26T, L27S, H28Q, L30A
notes: FN3 domain
B8: P282BR9P1357_D12 (designed binder)
chain: LPAPKNLVVSRVTEDSARLSWGQYITAFSFDSFLIQYQESEKVGEAIVLTVPGSERSYDLTGLKPGTEYTVSIYGVDVAWFQGKPTWSNPLSAIFTT
notes: FN3 domain
B9: P282BR9P1357_D2 (designed binder)
chain: LPAPKNLVVSRVTEDSARLSWIKDGHPRHFDSFLIQYQESEKVGEAIVLTVPGSERSYDLTGLKPGTEYTVSIYGVDVVYDRGQLISSNPLSAIFTT
notes: FN3 domain
B10: P282BR9P1357_E5 (designed binder)
chain: LPAPKNLVVSRVTEDSARLSWWPRKYQRPFDSFLIQYQESEKVGEAIVLTVPGSERSYDLTGLKPGTEYTVSIYGVDIEWIGNRPIASNPLSAIFTT
notes: FN3 domain
B11: P283BR9P1363_A10 (designed binder)
chain: LPAPKNLVVSRVTEDSARLSWQRADDILPYFDSFLIQYQESEKVGEAIVLTVPGSERSYDLTGLKPGTEYTVSIYGVDVKYDIDSRPISSNPLSAIFTT
notes: FN3 domain
B12: P282BR9P1357_G9 (designed binder)
chain: B11 chain with Q22P, R23I, D25S, D26Q, L28H, P29S, Y30P
notes: FN3 domain
B13: P283BR9P1363_B2 (designed binder)
chain: B11 chain with Q22A, R23S, A24T, D25V, I27P, L28H, Y30R
notes: FN3 domain
B14: P282DR9P1359_F5 (designed binder)
chain: LPAPKNLVVSRVTEDSARLSWTAPDAAFDSFQIAYPEWPPPGEAIVLTVPGSERSYDLTGLKPGTEYFVIIQGVKGGVESWPLSAIFTT
notes: FN3 domain
B15: P282CR9P1358_C2 (designed binder)
chain: B14 chain with Q32K, P40S, P41N, F68A, I70F, Q72W, V78A, E79F, W81N
notes: FN3 domain
B16: P282CR9P1358_C5 (designed binder)
chain: B14 chain with Q32L, P40D, P41S, F68A, I70F, Q72W, V78P, E79L, W81H
notes: FN3 domain
B17: P282CR9P1358_D10 (designed binder)
chain: B14 chain with Q32L, A34S, W38Y, Q72F, V78D, E79T
notes: FN3 domain
B18: P282CR9P1358_F5 (designed binder)
chain: B14 chain with Q32W, A34S, P41D, Q72W, V78E, E79T, W81A
notes: FN3 domain
B19: P282DR9P1359_A8 (designed binder)
chain: B14 chain with Q32R, P40V, P41Q, Q72Y, V78E, E79L, W81P
notes: FN3 domain
B20: P282DR9P1359_A12 (designed binder)
chain: B14 chain with D25E, G42R, I70V, V78E, E79I
notes: FN3 domain
B21: P282DR9P1359_C10 (designed binder)
chain: B14 chain with Q32A, A34V, P40T, P41D, F68A, I70F, Q72W, V78N, E79Q
notes: FN3 domain
B22: P282DR9P1359_C11 (designed binder)
chain: B14 chain with Q32K, W38F, F68Y, Q72I, V78T, E79D
notes: FN3 domain
B23: P282DR9P1359_C12 (designed binder)
chain: B14 chain with Q32Y, A34S, P40V, F68W, I70V, Q72Y, V78A, E79L, W81V
notes: FN3 domain
B24: P282DR9P1359_D12 (designed binder)
chain: B14 chain with Q32R, W38T, P39A, P40T, P41W, Q72Y, V78F, W81A
notes: FN3 domain

Molecular target: T1, In house human CD8A-Fc (human, UniProt P01732 22-182, limits assumed)
T1 construct: Captured on goat anti-human Fc on a ProteOn GLC chip; also called hCD8A-Fc; recombinant human CD8 alpha; not shown: linker with flag (and polyhistidine) tag and Fc of human IgG1
Assay: SPR (ProteOn), captured hCD8A-Fc
Protocol: Purified anti-CD8A FN3 domains were subjected to off-rate analysis using a Proteon surface plasmon resonance instrument in order to pick clones with the slowest off-rates for further characterization.
The immobilized GAH-Fc IgG densities averaged about 6000 Response Units (Ru) with less than 1% variation among different channels. In house human CD8A-Fc was captured in vertical orientation at 3 different ligand densities, 10, 5, 2.5 μg/ml for 5 minutes at 30 ul/minute flowrate. All FN3 domains were normalized to a 3 μM concentration, and tested for binding in horizontal orientation. All 6 analyte channels were used for FN3 domains to maximize the screening throughput. The dissociation phase was monitored for 15 minutes at a flow rate of 100 μl/min using PBST as running buffer. […] Data analyses were performed using Bio-Rad ProteOn Manager software (version 3.1.0.6). Raw data were double referenced by subtraction of the interspot (empty chip surface, no protein immobilized or captured) signals to correct the non-specific binding of the FN3 domain to the pre-coated GAH-Fc IgG surface, followed by a double correction using empty channel L6 where no hCD8A-Fc was captured. The processed binding data were locally fit to a 1:1 simple Langmuir binding model to extract the koff for each FN3 domain binding to captured hCD8A-Fc.

T1 sequence (P01732 22-182 limits assumed): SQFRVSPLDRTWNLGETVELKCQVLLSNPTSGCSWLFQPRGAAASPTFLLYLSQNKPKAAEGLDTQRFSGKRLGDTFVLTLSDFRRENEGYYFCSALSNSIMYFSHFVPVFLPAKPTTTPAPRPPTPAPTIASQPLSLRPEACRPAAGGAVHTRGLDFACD

| koff | Binder |
| --- | --- |
| 0.0001 s⁻¹ | B1 |
| 0.000458 s⁻¹ | B2 |
| 0.000335 s⁻¹ | B3 |
| 0.000127 s⁻¹ | B4 |
| 0.000285 s⁻¹ | B5 |
| 0.000269 s⁻¹ | B6 |
| 0.000329 s⁻¹ | B7 |
| 8.76e-05 s⁻¹ | B8 |
| 0.00105 s⁻¹ | B9 |
| 0.00021 s⁻¹ | B10 |
| 0.00036 s⁻¹ | B11 |
| 0.000304 s⁻¹ | B12 |
| 0.000208 s⁻¹ | B13 |
| 9.02e-05 s⁻¹ | B14 |
| 0.00113 s⁻¹ | B15 |
| 0.000999 s⁻¹ | B16 |
| 0.000311 s⁻¹ | B17 |
| 0.000637 s⁻¹ | B18 |
| 0.000638 s⁻¹ | B19 |
| 8.12e-05 s⁻¹ | B20 |
| 0.000991 s⁻¹ | B21 |
| 0.00216 s⁻¹ | B22 |
| 0.000978 s⁻¹ | B23 |
| 0.00193 s⁻¹ | B24 |

Molecular target: T2, cynomolgus monkey CD8A on primary cynomolgus monkey CD8+ T cells (cynomolgus monkey, UniProt P01732 23-235 (human entry))
T2 construct: also called Cyno CD8alpha
Assay: flow cytometry, cyno CD8+ T cells, 2 uM FN3
Protocol: (§1) Binding of the 190 ELISA hits to human and cynomologous monkey primary CD8 T cells was assessed by flow cytometry. The FN3 domain molecules were diluted to 2 μM and 0.2 μM in PBS and incubated with human or cynomologous monkey CD8+ T cells in 96-well format. After 1 hour at 4 C, the cells were washed once with PBS and then resuspended with an anti-FN3 domain antibody (PAB25) solution. Following this incubation, the cells were washed twice with PBS and a PE conjugated secondary antibody and a viability dye were added. Finally, cells were washed and resuspended in PBS for flow cytometric analysis using a BD Canto Instrument. Cells were gating on live cells and median fluorescence intensity of the bound Centyrins (PE channel) was calculated using Cytobank software.

T2 sequence (P01732 other isoform, or with tags, fused parts or gaps limits assumed): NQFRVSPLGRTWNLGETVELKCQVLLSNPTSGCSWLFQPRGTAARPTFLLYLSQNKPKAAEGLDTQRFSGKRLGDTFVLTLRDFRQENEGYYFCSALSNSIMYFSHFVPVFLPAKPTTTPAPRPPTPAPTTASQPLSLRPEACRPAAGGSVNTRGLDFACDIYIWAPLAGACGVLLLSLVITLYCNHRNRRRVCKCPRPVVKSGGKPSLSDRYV

| Cyno T-cell Binding 2 uM (MFI) | Binder |
| --- | --- |
| 18000 MFI | B1 |
| 24500 MFI | B2 |
| 37200 MFI | B3 |
| 41600 MFI | B4 |
| 27100 MFI | B5 |
| 37700 MFI | B6 |
| 17700 MFI | B7 |
| 40400 MFI | B8 |
| 25800 MFI | B9 |
| 10600 MFI | B10 |
| 27800 MFI | B11 |
| 41500 MFI | B12 |
| 14800 MFI | B13 |
| 114000 MFI | B14 |
| 55800 MFI | B15 |
| 25700 MFI | B16 |
| 74100 MFI | B17 |
| 85700 MFI | B18 |
| 70300 MFI | B19 |
| 88000 MFI | B20 |
| 98500 MFI | B21 |
| 19900 MFI | B22 |
| 66500 MFI | B23 |
| 37100 MFI | B24 |

Molecular target: T3, human CD8 alpha (CD8A) on primary human CD8+ T cells (human, UniProt P01732 22-235)
T3 construct: whole, on cells; also called hCD8A
Assay: flow cytometry, human CD8+ T cells, 2 uM FN3
Protocol: as §1

T3 sequence (P01732 22-235): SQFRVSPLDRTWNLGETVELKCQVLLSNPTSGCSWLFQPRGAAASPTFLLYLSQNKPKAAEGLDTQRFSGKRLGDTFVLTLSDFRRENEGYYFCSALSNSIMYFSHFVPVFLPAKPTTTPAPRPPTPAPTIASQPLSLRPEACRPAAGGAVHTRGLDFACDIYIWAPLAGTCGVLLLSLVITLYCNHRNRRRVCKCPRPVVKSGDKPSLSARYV

| Human T-cell Binding 2 uM (MFI) | Binder |
| --- | --- |
| 5930 MFI | B1 |
| 9780 MFI | B2 |
| 16500 MFI | B3 |
| 16800 MFI | B4 |
| 11100 MFI | B5 |
| 14500 MFI | B6 |
| 10800 MFI | B7 |
| 15300 MFI | B8 |
| 9610 MFI | B9 |
| 6730 MFI | B10 |
| 7890 MFI | B11 |
| 12700 MFI | B12 |
| 8360 MFI | B13 |
| 48900 MFI | B14 |
| 10100 MFI | B15 |
| 2710 MFI | B16 |
| 28600 MFI | B17 |
| 24400 MFI | B18 |
| 21100 MFI | B19 |
| 32200 MFI | B20 |
| 27800 MFI | B21 |
| 18200 MFI | B22 |
| 15100 MFI | B23 |
| 4540 MFI | B24 |

Molecular target: T2, cynomolgus monkey CD8A on primary …
Assay: flow cytometry, cyno CD8+ T cells, 0.2 uM FN3
Protocol: as §1

| Cyno T-cell Binding 0.2 uM (MFI) | Binder |
| --- | --- |
| 3840 MFI | B1 |
| 5110 MFI | B2 |
| 9080 MFI | B3 |
| 7060 MFI | B4 |
| 5700 MFI | B5 |
| 6840 MFI | B6 |
| 2470 MFI | B7 |
| 7360 MFI | B8 |
| 2520 MFI | B9 |
| 4100 MFI | B10 |
| 4100 MFI | B11 |
| 4640 MFI | B12 |
| 2820 MFI | B13 |
| 34700 MFI | B14 |
| 7050 MFI | B15 |
| 1830 MFI | B16 |
| 4070 MFI | B17 |
| 13700 MFI | B18 |
| 7770 MFI | B19 |
| 15500 MFI | B20 |
| 15100 MFI | B21 |
| 457 MFI | B22 |
| 3640 MFI | B23 |
| 1750 MFI | B24 |

Molecular target: T3, human CD8 alpha (CD8A) on primary human …
Assay: flow cytometry, human CD8+ T cells, 0.2 uM FN3
Protocol: as §1

| Human T-cell Binding 0.2 uM (MFI) | Binder |
| --- | --- |
| 2880 MFI | B1 |
| 2900 MFI | B2 |
| 3740 MFI | B3 |
| 4220 MFI | B4 |
| 3030 MFI | B5 |
| 3450 MFI | B6 |
| 2500 MFI | B7 |
| 3900 MFI | B8 |
| 1570 MFI | B9 |
| 2590 MFI | B10 |
| 2750 MFI | B11 |
| 2800 MFI | B12 |
| 2400 MFI | B13 |
| 8480 MFI | B14 |
| 1060 MFI | B15 |
| 511 MFI | B16 |
| 2760 MFI | B17 |
| 3070 MFI | B18 |
| 2110 MFI | B19 |
| 5950 MFI | B20 |
| 2880 MFI | B21 |
| 1290 MFI | B22 |
| 944 MFI | B23 |
| 542 MFI | B24 |
